The values that follow come from patent US20040110161.

For data set [1], the target named is T1, MBP-MutS fusion (Cy5-labeled) (Escherichia coli) (UniProt P23909).
T1 sequence: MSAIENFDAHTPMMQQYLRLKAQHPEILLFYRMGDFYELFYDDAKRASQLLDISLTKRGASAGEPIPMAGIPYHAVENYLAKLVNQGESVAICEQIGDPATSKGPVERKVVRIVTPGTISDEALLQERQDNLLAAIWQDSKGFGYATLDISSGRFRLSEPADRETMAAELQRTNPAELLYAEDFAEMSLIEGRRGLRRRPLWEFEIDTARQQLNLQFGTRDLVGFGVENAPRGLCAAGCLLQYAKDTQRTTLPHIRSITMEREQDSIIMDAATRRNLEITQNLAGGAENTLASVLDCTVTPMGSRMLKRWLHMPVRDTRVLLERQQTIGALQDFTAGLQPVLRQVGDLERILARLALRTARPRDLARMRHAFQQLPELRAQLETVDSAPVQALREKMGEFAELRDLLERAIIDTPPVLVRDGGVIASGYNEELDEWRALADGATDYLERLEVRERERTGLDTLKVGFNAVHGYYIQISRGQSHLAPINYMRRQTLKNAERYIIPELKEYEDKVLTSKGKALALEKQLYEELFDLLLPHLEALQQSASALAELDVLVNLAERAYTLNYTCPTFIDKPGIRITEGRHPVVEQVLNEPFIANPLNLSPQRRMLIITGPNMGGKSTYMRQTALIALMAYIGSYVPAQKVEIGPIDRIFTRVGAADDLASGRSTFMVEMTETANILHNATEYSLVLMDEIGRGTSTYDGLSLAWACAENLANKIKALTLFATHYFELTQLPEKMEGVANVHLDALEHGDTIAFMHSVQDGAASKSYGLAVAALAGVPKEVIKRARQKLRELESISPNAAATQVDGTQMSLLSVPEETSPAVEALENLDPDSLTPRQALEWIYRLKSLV
The settings on record: with nuclease and SSB.

The target of data set [2] is T2, MutS (Cy5-labeled) (Escherichia coli) (UniProt P23909).
T2 sequence: T1 sequence
The settings on record: mung bean nuclease and SSB treated hydrogel chip.

Consider “AGTGGTAATCTACTGGGACGGAACAGCTTTGAGGTGCGTGTTTGTGCCTGTCCTGGGAGAGACCGGCGCACAG (double strand) [cExon8/SW-480 PCR product]”, for which the values for the binding signal (fluorescence units) in data set [1] and in data set [2] were 168 and 461, respectively.
